Experimental findings from article PMC7689938, “Abscisic acid promotes jasmonic acid biosynthesis via a ‘SAPK10‐bZIP72‐AOC’ pathway to synergistically inhibit seed germination in rice (Oryza sativa)” (The New Phytologist, 2020) are described below.

The target of this assay is T1, GST-SAPK10 (rice (Oryza sativa L. ssp. japonica cv …, UniProt Q75H77 1-362)).
T1 construct: SAPK10 (SnRK2 type kinase), rice; full-length CDS in pGEX-4T-1; Purified GST-SAPK10 gave a phosphorylation band with Phos-tag (autophosphorylation, not detected in S177A); source: Transetta (DE3) cells, purified (GST-Sefinose Kit)
T1 sequence (looked up): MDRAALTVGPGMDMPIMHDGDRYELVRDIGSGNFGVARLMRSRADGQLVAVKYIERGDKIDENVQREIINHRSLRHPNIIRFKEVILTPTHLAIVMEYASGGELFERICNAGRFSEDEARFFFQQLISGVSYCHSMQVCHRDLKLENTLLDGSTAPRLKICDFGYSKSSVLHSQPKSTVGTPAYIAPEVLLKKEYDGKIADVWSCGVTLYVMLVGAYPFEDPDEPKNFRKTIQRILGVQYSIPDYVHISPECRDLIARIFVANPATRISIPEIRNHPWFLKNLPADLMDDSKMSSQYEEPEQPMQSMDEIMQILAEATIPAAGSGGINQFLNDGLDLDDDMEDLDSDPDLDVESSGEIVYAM
The assay is described as follows: pull-down; GST fusion on glutathione high-capacity magnetic agarose beads; 50 mM Tris-HCl pH 7.5, 5% glycerol, 1 mM EDTA, 1 mM DTT, 1 mM PMSF, 0.01% Nonidet P-40, 150 mM KCl; 4°C, 2 h; blots with anti-His and anti-GST. The settings on record: both partners purified.

B1: His-SAPK10 (enzyme, UniProt Q75H77 1-362, looked up)
chain: MDRAALTVGPGMDMPIMHDGDRYELVRDIGSGNFGVARLMRSRADGQLVAVKYIERGDKIDENVQREIINHRSLRHPNIIRFKEVILTPTHLAIVMEYASGGELFERICNAGRFSEDEARFFFQQLISGVSYCHSMQVCHRDLKLENTLLDGSTAPRLKICDFGYSKSSVLHSQPKSTVGTPAYIAPEVLLKKEYDGKIADVWSCGVTLYVMLVGAYPFEDPDEPKNFRKTIQRILGVQYSIPDYVHISPECRDLIARIFVANPATRISIPEIRNHPWFLKNLPADLMDDSKMSSQYEEPEQPMQSMDEIMQILAEATIPAAGSGGINQFLNDGLDLDDDMEDLDSDPDLDVESSGEIVYAM
notes: SAPK10 (SnRK2 type kinase), rice; full-length CDS in pET28a; source: Transetta (DE3) cells, purified (6 x His-Tagged Protein Purification Kit)
On to B1, for which the binding result is listed as “binds”.

B2: His-SAPK10^S177A (enzyme, UniProt Q75H77 1-362, looked up)
chain: MDRAALTVGPGMDMPIMHDGDRYELVRDIGSGNFGVARLMRSRADGQLVAVKYIERGDKIDENVQREIINHRSLRHPNIIRFKEVILTPTHLAIVMEYASGGELFERICNAGRFSEDEARFFFQQLISGVSYCHSMQVCHRDLKLENTLLDGSTAPRLKICDFGYSKSSVLHSQPKATVGTPAYIAPEVLLKKEYDGKIADVWSCGVTLYVMLVGAYPFEDPDEPKNFRKTIQRILGVQYSIPDYVHISPECRDLIARIFVANPATRISIPEIRNHPWFLKNLPADLMDDSKMSSQYEEPEQPMQSMDEIMQILAEATIPAAGSGGINQFLNDGLDLDDDMEDLDSDPDLDVESSGEIVYAM
notes: SAPK10, rice, Ser177 replaced by alanine; full-length CDS in pET28a; source: Transetta (DE3) cells, purified (6 x His-Tagged Protein Purification Kit)
B2: the binding result is on record as “binds”.
